Assay [1] has as its target murine PD-1-transmembrane PD-1-CD28 fusion protein (PTM) (murine). As to the kind of experiment: cell-based or functional assay.
In assay [2] the target is T1, recombinant murine PD-L1 Fc chimera (R&D Systems) (murine, UniProt Q9EP73 19-238).
T1 construct: also called recombinant PD-L1; recombinant PD-L1-Fc; not shown: Fc part of the bought R&D Systems chimera (detected with anti-human IgG)
The experiment in a line: flow cytometry; transduced murine T cells incubated with recombinant PD-L1-Fc. (In flow cytometry, cells or beads pass a laser one at a time.)

T1 sequence (Q9EP73 19-238, change not shown): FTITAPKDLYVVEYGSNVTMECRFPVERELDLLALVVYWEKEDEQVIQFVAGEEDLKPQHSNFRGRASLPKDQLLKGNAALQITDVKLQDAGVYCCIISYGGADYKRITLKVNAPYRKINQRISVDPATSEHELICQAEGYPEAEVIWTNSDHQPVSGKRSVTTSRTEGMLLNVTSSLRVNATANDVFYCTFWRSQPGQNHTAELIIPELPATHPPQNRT

“full length murine PD-L1 on Panc02-OVA-PD-L1 tumor cells (from UniProt Q9EP73 19-290) (ligand)” displayed an IFN-γ release in coculture of PTM-transduced OT-1 T cells with tumor cells in assay [1] of 545 ng/mL.

B1: murine PD-1-transmembrane PD-1-CD28 fusion protein (PTM) (receptor)
chain: LEVPNGPWRSLTFYPAWLTVSEGANATFTCSLSNWSEDLMLNWNRLSPSNQTEKQAAFCNGLSQPVQDARFQIIQLPNRHDFHMNILDTRRNDSGIYLCGAISLHPKAKIEESPGAELVVTERILETSTRYPSPSPKPEGRFQGMVIGIMSALVGIPVLLLLAWALNSRRNRLLQSDYMNMTPRRPGLTRKPYQPYAPARDFAAYRP
notes: Expressed on retrovirally transduced primary murine T cells; The entry starts at PD-1 residue 1, so it includes the signal peptide; also called mPTM; PTM fusion protein
With B1, the binding result in assay [2] is “binds”.

For the origin of these results see patent US20220169699A1 (published 2022).
